Reference: patent US6713283B2, “Tyrosylprotein sulfotransferases” (The Board of Regents of the University of Oklahoma, priority 1998, dated 2004)

Tests used:
[1] = system: TPST; assay: Inhibition of [35S]sulfate transfer in the TPST assay by free peptide; format: biochemical; conditions: free peptide versus immobilized peptide
Method: (§1) Assay of Sulfotransferase Activity. TPST activity was determined by measuring the transfer of [^35S]sulfate from [^35S]PAPS (Dupont/NEN) to an immobilized peptide. The peptide (QATEYEYLDYDFLPEC (SEQ ID NO:22)) represents the NH2-terminal 15 residues of the mature PSGL-1 polypeptide to which a carboxy terminal cysteine residue was added. […] The peptide was linked via the cysteine residue to iodoacetamide-activated resin (UltraLink™ Iodoacetyl, Pierce) at a density of 1.5-3.0 μmol/ml resin. The enzyme assay was performed by combining 10 μl of peptide-derivitized beads with 2-20 μl of sample in 40 mM PIPES, pH 6.8, 0.3 M NaCl, 20 mM MnCl2, 50 mM NaF, 1% Triton X-100, 1 mM 5′AMP in a final volume of […]. The assay was initiated by addition of 0.5 μCi of [^35S]PAPS (about 1.7 μM). After 30 min at 37° C., the reaction beads were washed extensively with 6 M guanidine at 65° C. and the radioactivity incorporated into the beads determined by liquid scintillation counting. The reaction rate was optimal at pH 6.8-7.0, 0.3 M NaCl, and 2 μM PAPS and was linear with respect to time and sample input. […] One unit of activity was defined as 1 pmol of product formed per minute.

[2] = system: PSGL-1 peptide (QATEYEYLDYDFLPEC); assay: TPST activity assay: transfer of [35S]sulfate from [35S]PAPS to immobilized PSGL-1 peptide; format: biochemical, Homo sapiens; conditions: for Induction-Fold: mean specific activity of TPST transfected vs. mock transfected extracts; for TPST activity in cell-free conditioned media / culture supernatants: conditioned media of transfected CHO-K1 and 293-T cells (full-length enzyme); for Specific Activity / specific activity of 293-T cell extracts: mean ± SD; for Specific Activity: 1 unit = 1 pmol product/min; for specific activity of 293-T cell extracts: 293-T cells transfected with full-length HPC4 fusion cDNA; for increase in specific activity of 293-T cell extracts compared to mock transfected: PSGL-1 peptide substrate
Method: as §1
Chinese hamster ovary cells (CHO-K1) were grown in high-glucose Alpha modified Eagle's media containing 10% FCS, 2 mM glutamine at 37° C. and 5% CO2. The human embryonic kidney cell line 293-T was grown in low-glucose Dulbecco's modified Eagle's media containing 10% FCS, 2 mM glutamine at 37° C. and 5% CO2. Cells were transfected with empty vector or vector containing cDNAs encoding human TPST-1-HPC4 fusion protein or mouse TPST-1 using Lipofectamine (Gibco/BRL) according to the instructions of the supplier. The media was changed at 24 h and after an additional 24 h the conditioned media was collected. The cell monolayers were washed with Ca^2+/Mg^2+-free Hank's balanced salt solution and the cells released from the plates. The cells were pelleted by centrifugation and extracted with 1% Triton X-100, 0.1 M NaCl, 20 mM TAPS (pH 9.0), 10 μg/ml leupeptin/antipain, 5 mM benzamidine. Extracts and conditioned media were clarified by centrifugation (15 min, 10,000 g) and stored at −80° C.
Expression and characterization of Recombinant TPST-2. Full-length human and mouse TPST-2 were expressed in 293-T cells as HPC4 fusion proteins as described in Experimental Procedures. Cells transfected with empty plasmid or plasmid encoding human and mouse TPST fusion proteins were extracted and assayed for TPST activity and protein content. Extracts were assayed as discussed above using a PSGL-1 peptide substrate (QATEYEYLDYDFLPEC (SEQ ID NO:22)). The specific activity of mock transfected 293-T cell extracts was 0.06±0.01 u/mg (mean±SD, n=6).

[3] = extracts of transfected 293-T cells

Molecule: QATEYEYLDYDFLPEC [free peptide]
- IC50 for inhibition of transfer of [35S]sulfate [1]: equimolar to the concentration of immobilized peptide in the assay

B1: hTPST-1-HPC4: Human tyrosylprotein sulfotransferase-1 (SEQ ID NO:1) expressed as fusion protein with NH2-terminal HPC4 epitope (protein)
chain: MVGKLKQNLLLACLVISSVTVFYLGQHAMECHHRIEERSQPVKLESTRTTVRTGLDLKANKTFAYHKDMPLIFIGGVPRSGTTLMRAMLDAHPDIRCGEETRVIPRILALKQMWSRSSKEKIRLDEAGVTDEVLDSAMQAFLLEIIVKHGEPAPYLCNKDPFALKSLTYLSRLFPNAKFLLMVRDGRASVHSMISRKVTIAGFDLNSYRDCLTKWNRAIETMYNQCMEVGYKKCMLVHYEQLVLHPERWMRTLLKFLQIPWNHSVLHHEEMIGKAGGVSLSKVERSTDQVIKPVNVGALSKWVGKIPPDVLQDMAVIAPMLAKLGYDPYANPPNYGKPDPKIIENTRRVYKGEFQLPDFLKEKPQTEQVE
modifications: N-terminal HPC4 epitope tag
- specific activity of TPST-1 extracts relative to TPST-2 extracts ([2]; 293-T cell extracts, PSGL-1 peptide as substrate): comparable
- Induction-Fold ([2]; 293-T cells): 80 Fold
- Induction-Fold ([2]; CHO-K1 cells): 9 Fold
- TPST activity in cell-free conditioned media / culture supernatants [2]: not detectable
- Specific Activity [2, 3]: 8.84 ± 1.53 (5) units/mg
- Specific Activity ([2]; extracts of transfected CHO-K1 cells): 2.31 ± 0.89 (3) units/mg
- specific activity of purified fusion protein ([2]; purified from 293-T cell extracts by HPC4 affinity chromatography): about 6,300 u/mg

B2: human TPST-2: Full-length human tyrosylprotein sulfotransferase-2 (SEQ ID NO:5) expressed as HPC4 fusion protein (protein)
chain: MRLSVRRVLLAAGCALVLVLAVQLGQQVLECRAVLAGLRSPRGAMRPEQEELVMVGTNHVEYRYGKAMPLIFVGGVPRSGTTLMRAMLDAHPEVRCGEETRIIPRVLAMRQAWSKSGREKLRLDEAGVTDEVLDAAMQAFILEVIAKHGEPARVLCNKDPFTLKSSVYLSRLFPNSKFLLMVRDGRASVHSMITRKVTIAGFDLSSYRDCLTKWNKAIEVMYAQCMEVGKEKCLPVYYEQLVLHPRRSLKLILDFLGIAWSDAVLHHEDLIGKPGGVSLSKIERSTDQVIKPVNLEALSKWTGHIPGDVVRDMAQIAPMLAQLGYDPYANPPNYGNPDPFVINNTQRVLKGDYKTPANLKGYFQVNQNSTSSHLGSS
modifications: HPC4 epitope tag
- specific activity of 293-T cell extracts [2]: 7.07±1.28 u/mg
- increase in specific activity of 293-T cell extracts compared to mock transfected ([2]; 293-T cells): 112 fold

B3: C. elegans TPST-A: C. elegans tyrosylprotein sulfotransferase of 380 amino acids (SEQ ID NO:9), expressed full-length in 293-T cells (protein)
chain: MRKNRELLLVLFLVVFILFYFITARTADDPYYSNHREKFNGAAADDGDESLPFHQLTSVRSDDGYNRTSPFIFIGGVPRSGTTLMRAMLDAHPEVRCGEETRVIPRILNLRSQWKKSEKEWNRLQQAGVTGEVINNAISSFIMEIMVGHGDRAPRLCNKDPFTMKSAVYLKELFPNAKYLLMIRDGRATVNSIISRKVTITGFDLNDFRQCMTKWNAAIQIMVDQCESVGEKNCLKVYYEQLVLHPEAQMRRITEFLDIPWDDKVLHHEQLIGKDISLSNVERSSDQVVKPVNLDALIKWVGTIPEDVVADMDSVAPMLRRLGYDPNANPPNYGKPDELVAKKTEDVHKNGAEWYKKAVQVVNDPGRVDKPIVDNEVSKL
- increase in specific activity of 293-T cell extracts compared to mock transfected ([2]; 293-T cells): 40 fold

B4: rat liver TPST: TPST purified from rat liver microsomes, polypeptide of about 50 kDa (protein)
chain: MVGKLKQNLLLACLVISSVTVFYLGQHAMECHHRIEERSQPARLENPKATVRTGLDIKANKTFTYHKNMPLIFIGGVPRSGTTLMRAMLDAHPDIRCGEETRVIPRILALKQMWSRSSKEKIRLDEAGVTDEVLDSAMQAFLLEVIVKHGEPAPYLCNKDPFALKSLTYLARLFPNAKFLLMVRDGRASVHSMISRKVTIAGFDLNSYRDCLTKWNRAIETMYNQCMEVGYKKCMLVHYEQLVLHPERWMRTLLKFLHIPWNHSVLHHEEMIGKAGGVSLSKVERSTDQVIKPVNVGALSKWVGKIPPDVLQDMAVIAPMLAKLGYDPYANPPNYGKPDPKILENTRRVHKGEFQLPDFLKEKPQTEQVE
- specific activity of purified enzyme ([2]; rat liver microsomal enzyme after second PSGL-1 peptide column): about 2,950 units/mg

B5: mTPST-1: Mouse tyrosylprotein sulfotransferase-1 (SEQ ID NO:3), expressed from unmodified pcDNA3.1(+) vector (protein)
chain: MVGKLKQNLLLACLVISSVTVFYLGQHAMECHHRIEERSQPARLENPKATVRAGLDIKANKTFTYHKDMPLIFIGGVPRSGTTLMRAMLDAHPDIRCGEETRVIPRILALKQMWSRSSKEKIRLDEAGVTDEVLDSAMQAFLLEVIVKHGEPAPYLCNKDPFALKSLTYLARLFPNAKFLLMVRDGRASVHSMISRKVTIAGFDLNSYRDCLTKWNRAIETMYNQCMEVGYKKCMLVHYEQLVLHPERWMRTLLKFLHIPWNHSVLHHEEMIGKAGGVSLSKVERSTDQVIKPVNVGALSKWVGKIPPDVLQDMAVIAPMLAKLGYDPYANPPNYGKPDPKILENTRRVYKGEFQLPDFLKEKPQTEQVE
- Induction-Fold ([2]; 293-T cells): 74 Fold
- TPST activity in cell-free conditioned media / culture supernatants [2]: not detectable
- Specific Activity [2, 3]: 8.10 ± 1.37 (4) units/mg

B6: mouse TPST-2: Full-length mouse tyrosylprotein sulfotransferase-2 (SEQ ID NO:7) expressed as HPC4 fusion protein (protein)
chain: MRLSVRKVLLAAGCALALVLAVQLGQQVLECRAVLGGTRNPRRMRPEQEELVMLGADHVEYRYGKAMPLIFVGGVPRSGTTLMRAMLDAHPEVRCGEETRIIPRVLAMRQAWTKSGREKLRLDEAGVTDEVLDAAMQAFILEVIAKHGEPARVLCNKDPFTLKSSVYLARLFPNSKFLLMVRDGRASVHSMITRKVTIAGFDLSSYRDCLTKWNKAIEVMYAQCMEVGRDKCLPVYYEQLVLHPRRSLKRILDFLGIAWSDTVLHHEDLIGKPGGVSLSKIERSTDQVIKPVNLEALSKWTGHIPRDVVRDMAQIAPMLARLGYDPYANPPNYGNPDPIVINNTHRVLKGDYKTPANLKGYFQVNQNSTSPHLGSS
modifications: HPC4 fusion tag
- specific activity of 293-T cell extracts [2]: 2.91±0.86 u/mg
- increase in specific activity of 293-T cell extracts compared to mock transfected ([2]; 293-T cells): 46 fold
